Reference: publication PMC5473146

Key:
Dbp2 = Dbp2 (Saccharomyces cerevisiae, UniProt P24783 1-546); assay: fluorescence anisotropy
MBP-DDX5-GST = MBP-DDX5-GST (Homo sapiens, UniProt P17844 1-614); assay: fluorescence anisotropy
Chain of MBP-DDX5-GST (P17844 whole entry): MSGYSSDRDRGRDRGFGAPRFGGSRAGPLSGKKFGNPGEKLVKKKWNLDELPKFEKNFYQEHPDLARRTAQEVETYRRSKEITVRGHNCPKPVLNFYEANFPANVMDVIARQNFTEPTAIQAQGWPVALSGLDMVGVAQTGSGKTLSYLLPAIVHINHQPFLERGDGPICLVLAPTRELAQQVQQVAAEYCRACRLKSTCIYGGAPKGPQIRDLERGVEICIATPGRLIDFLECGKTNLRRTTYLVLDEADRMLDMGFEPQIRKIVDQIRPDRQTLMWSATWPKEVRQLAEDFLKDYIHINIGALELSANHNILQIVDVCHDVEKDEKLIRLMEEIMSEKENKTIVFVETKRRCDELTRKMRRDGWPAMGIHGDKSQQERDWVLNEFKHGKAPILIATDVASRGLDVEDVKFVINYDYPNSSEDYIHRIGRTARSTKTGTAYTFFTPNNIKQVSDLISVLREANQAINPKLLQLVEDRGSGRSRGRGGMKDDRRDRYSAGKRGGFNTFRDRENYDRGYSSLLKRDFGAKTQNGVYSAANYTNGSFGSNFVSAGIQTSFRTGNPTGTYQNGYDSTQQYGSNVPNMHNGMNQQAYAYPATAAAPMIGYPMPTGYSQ

Chain of Dbp2 (P24783 whole entry): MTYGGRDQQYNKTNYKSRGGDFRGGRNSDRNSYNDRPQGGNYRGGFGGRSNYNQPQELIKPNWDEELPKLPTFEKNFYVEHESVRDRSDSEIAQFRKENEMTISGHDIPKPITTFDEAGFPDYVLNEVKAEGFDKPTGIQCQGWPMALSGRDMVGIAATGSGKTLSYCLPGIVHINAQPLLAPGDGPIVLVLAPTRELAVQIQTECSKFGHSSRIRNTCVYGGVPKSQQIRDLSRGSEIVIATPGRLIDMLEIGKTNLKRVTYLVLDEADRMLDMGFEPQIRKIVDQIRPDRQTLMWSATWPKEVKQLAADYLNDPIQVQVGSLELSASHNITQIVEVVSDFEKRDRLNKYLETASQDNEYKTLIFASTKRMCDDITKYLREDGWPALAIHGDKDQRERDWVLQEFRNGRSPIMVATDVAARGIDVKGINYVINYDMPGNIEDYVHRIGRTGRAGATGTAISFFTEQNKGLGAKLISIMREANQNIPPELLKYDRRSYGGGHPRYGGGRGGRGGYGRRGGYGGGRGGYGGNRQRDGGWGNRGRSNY

B1: 16-nt ssRNA (6-FAM) (ssRNA)
RNA: AGCACCGUAAAGACGC
- binding signal (Dbp2): ~4 fold weaker than MBP-DDX5-GST
- binding signal (MBP-DDX5-GST): ~4 fold tighter than Dbp2
